Experimental data taken from the DeepSol protein solubility set.

Test: soluble on expression in E. coli; label from the status in PepcDB or PDB records

Sequence	soluble on expression in E. coli
MAVGKNKGLSKGGKKGGKKKVVDPFSRKDWYDVKAPNMFQTRQIGKTLVNRTQGQRIASDYLKGRVFEVSLADLQKDIDPERSFRKFRLIAEDVQDRNVLCNFHGMDLTTDKYRSMVKKWQTLIEAIVEAKTVDGYLLRVFCIGFTAKDQQSQRKTCYAQQSQVRKIRARMTDIITNEVSGADLKQLVNKLALDSIAKDIEKSCQRIYPLHDVYIRKVKVLKKPRFDVSKLLELHGDGGGKSVEAVVSSEGAVIDRPEGYEPPVQEAVLEHHHHHH	soluble
MKRNAWEVYGEVLKTARELGLEGEEQEVAKALLAWPKERFHALAARVGLKAKYLRHDLLPIAFLPEPLREALQGGLPLREAHRLHRLLKRGELSLQDLTGKDPKALMALPARPGEVDPRLPVWFFPPEPWEEALPMAVARALVQLYTREGELVLDPMAGRGTVVEAARALDRRAWGGDIAPRGPLVERADIRDLPRRFRKEAALVVLHPPTFSTWLREEGYREEAEERYGEYIRHISSFLDLCRPTLAPGGKLVLVARPRRTLTPKDLEAGHDFFLAPWERALAEADFRPLSYHLAVSQDGRQDWHLFVGEPRG	soluble
LSAQEIIQYISDAKKSTPLKVYVNGHFENVTFPESFKVFGSEHSKVIFCEANEWKQFYQQNHSLITELEIEMDRRNSAIPLKDLTNTN	soluble
MGHHHHHHSHMFMREIELKGHIIDSFILAKVFDRTLELGGDYKVLEFDIGKKKIDTSYAKLLISGDTQQHLDQILEELQNVGANIPEIENANLKPALKDSVLPDGFYSTTNHPTHVKVNDEWIEVANPKMDAVIVVYPEEKRAETKVIRKVKKGDFVLIGHNGIRVMPPEKSREAGQLFEFMNSEVSSEKPKEAIIKRIAKEMHEIREEYKKTGTGGIAIVGGPAIIHTGGGPALAKMVELGYIQAILAGNALATHDIESALYGTSLGVNIKTAKPVTGGHKHHIYAINAINDAGNIKNAVESGVLKEGIMYQCIKNNIPYVLAGSIRDDGPIPDVITDSMVAQDKMRTTVMDKKMVIMLSTLLHSVATGNLMPSYIKTVCVDIQPSTVTKLMDRGTSQAIGVVTDVGVFLVLLLKELERLELQE	soluble
MGSDKIHHHHHHMLQNRERTYSLPQPFYSDDRLFEIDMQEIFHKEWLIAGMTCEIPTKGNFLTLQIGKNPILVVRGPDGAVNAFHNVCRHRGSRLCTAEKGKVAKLVCHYHQWTYELDGRLLYAGTEMGDDFDMKQFGLKPVHVKTAGGYIFISLAENPPAIDEFLATLKHYMEPYDMENTKVAVQTTLMEKANWKLVLENNRECYHCGGAHPELLKTLLEWDDVTDPRADQAFKDHVAASAAAWDAEKIPYAHASFGLRNRIVRMPLLKGTVSMTMDGKVGCKKLMGRIQNPELGSMRILHLPHSWNHCMGDHIIVFTVWPISAQETMVSTKWIVHKDAVEGVDYDVARMRQVWDATNDQDRRLAEENQRGINSTAYQPGPYSKTYEFGVVNFIDWYSARMLENLGAEPAPYLKGVAVNHE	not soluble
MAHHHHHHMTSTVTAVNQTQSLAAIRNFVRASVSCITYARGLCSDNAYEQRPFLGLPLRQLIPSTTESITISEWIEKGAFDALNRNYLKEMSLCVYDAACHELLESYCFGFNYTGDGERAQMTLNASQTIADGSKTTAVSQSSGGAVGIPAYRKRRCTKQEVQHLLTSILERLMDVVESLPPLLSERVLTMRLTYYDAVTPASYEPPCFAPASEHMARLYQAEVKHHVNIGSMDTSHHLFSVAIRHPLLQQIHRQMTGRTTSAVATKTGGSPLSAGKIAAVSTPSDPLRSGWESSFSSDPAVASAVAAAGATVTHGVVASHASCGLLLCADGEGAAFDAENAGEEKAAGSSLGEVGGGGACTARTGETLRPCEVAKLDGVYRLMEKSTSGDERRLLRPAELTYLLFAAFVFTKAPSARGGRGELKADEVEAYRALRCPFDVSAKTVLLVLQRLSREDFLQPCNARGAPAPKMPKAEEGSRPTPAIRAWLVPDPPASLLQQLMQVDAVTELLTHESHLVLQELSVYLAREEWRRAPRTMTAKATSGRISTTGGSGKRRSSR	soluble
MAHHHHHHMKSATMSATHALRDKWFVSFLPLLTADMVNTDYKGNWQLAAQERTQKLDWITSVEELWSTMNSLPKVHQLGMGSTLIFARNNKEPPSYEAYPNGSRIMINLLKPPTTDAGLELVLAVVMGETAAEKASDGKPVCDVLRIAARPSREHSEQIRVEVWLSDSTRSHAVAEFLAEAMRAKGLAANSYNIAEASFDAAAPGKDKKVLAASTMPSPSSPPMVKD	soluble
RQAVGPGGVPAGAGGSGAVLGPEAAGPEREEPECGSSGGGMSRPPPTGKMPGAPETAPGDGAGASRQRKLEALIRDPRSPINVESLLDGLNSLVLDLDFPALRKNKNIDNFLNRYEKIVKKIRGLQMKAEDYDVVKVIGRGAFGEVQLVRHKASQKVYAMKLLSKFEMIKRSDSAFFWEERDIMAFANSPWVVQLFYAFQDDRYLYMVMEYMPGGDLVNLMSNYDVPEKWAKFYTAEVVLALDAIHSMGLIHRDVKPDNMLLDKHGHLKLADFGTCMKMDETGMVHCDTAVGTPDYISPEVLKSQGGDGFYGRECDWWSVGVFLYEMLVGDTPFYADSLVGTYSKIMDHKNSLCFPEDAEISKHAKNLICAFLTDREVRLGRNGVEEIRQHPFFKNDQWHWDNIRETAAPVVPELSSDIDSSNFDDIEDDKGDVETFPIPKAFVGNQLPFIGFTYYRENLLLSDSPSCRENDSIQSRKNEESQEIQKKLYTLEEHLSNEMQAKEELEQKCKSVNTRLEKTAKELEEEITLRKSVESALRQLEREKALLQHKNAEYQRKADHEADKKRNLENDVNSLKDQLEDLKKRNQNSQISTEKVNQLQRQLDETNALLRTESDTAARLRKTQAESSKQIQQLESNNRDLQDKNCLLETAKLKLEKEFINLQSALESERRDRTHGSEIINDLQGRICGLEEDLKNGKILLAKVELEKRQLQERFTDLEKEKSNMEIDMTYQLKVIQQSLEQEEAEHKATKARLADKNKIYESIEEAKSEAMKEMEKKLLEERTLKQKVENLLLEAEKRCSLLDCDLKQSQQKINELLKQKDVLNEDVRNLTLKIEQETQKRCLTQNDLKMQTQQVNTLKMSEKQLKQENNHLMEMKMNLEKQNAELRKERQDADGQMKELQDQLEAEQYFSTLYKTQVRELKEECEEKTKLGKELQQKKQELQDERDSLAAQLEITLTKADSEQLARSIAEEQYSDLEKEKIMKELEIKEMMARHKQELTEKDATIASLEETNRTLTSDVANLANEKEELNNKLKDVQEQLSRLKDEEISAAAIKAQFEKQLLTERTLKTQAVNKLAEIMNRKEPVKRGNDTDVRRKEKENRKLHMELKSEREKLTQQMIKYQKELNEMQAQIAEESQIRIELQMTLDSKDSDIEQLRSQLQALHIGLDSSSIGSGPGDAEADDGFPESRLEGWLSLPVRNNTKKFGWVKKYVIVSSKKILFYDSEQDKEQSNPYMVLDIDKLFHVRPVTQTDVYRADAKEIPRIFQILYANEGESKKEQEFPVEPVGEKSNYICHKGHEFIPTLYHFPTNCEACMKPLWHMFKPPPALECRRCHIKCHKDHMDKKEEIIAPCKVYYDISTAKNLLLLANSTEEQQKWVSRLVKKIPKKPPAPDPFARSSPRTSMKIQQNQSIRRPSRQLAPNKPS	soluble
MGSDKIHHHHHHMRVFNSSPPSEAQTRTRILQAAQRLFASQGFDGTTTRDLAQAAGVAEGTLFRHFPNKKAILVEVATSGWVEILTDLLTELSEMGSYKAVAQVMRRRMWNFQKNADLMRVCFMEVQFHPDLRDRIQLEVITKMTDVGEAFFQTAMDKGIYRKMDAKLVAKVFLGMFAIAGFSNNTLIEPDASPQQMQEMAEGLADIFLNGVLAKD	not soluble
MSLKTVVVSGASVAGTAAAYWLGRHGYSVTMVERHPGLRPGGQAIDVRGPALDVLERMGLLAAAQEHKTRIRGASFVDRDGNELFRDTESTPTGGPVNSPDIELLRDDLVELLYGATQPSVEYLFDDSISTLQDDGDSVRVTFERAAAREFDLVIGADGLHSNVRRLVFGPEEQFVKRLGTHAAIFTVPNFLELDYWQTWHYGDSTMAGVYSARNNTEARAALAFMDTELRIDYRDTEAQFAELQRRMAEDGWVRAQLLHYMRSAPDFYFDEMSQILMDRWSRGRVALVGDAGYCCSPLSGQGTSVALLGAYILAGELKAAGDDYQLGFANYHAEFHGFVERNQWLVSDNIPGGAPIPQEEFERIVHSITIKDYEGHHHHHH	not soluble
MGSDKIHHHHHHMLVVPAIDLFRGKVARMIKGRKENTIFYEKDPVELVEKLIEEGFTLIHVVDLSNAIENSGENLPVLEKLSEFAEHIQIGGGIRSLDYAEKLRKLGYRRQIVSSKVLEDPSFLKSLREIDVEPVFSLDTRGGRVAFKGWLAEEEIDPVSLLKRLKEYGLEEIVHTEIEKDGTLQEHDFSLTKKIAIEAEVKVLAAGGISSENSLKTAQKVHTETNGLLKGVIVGRAFLEGILTVEVMKRYAR	not soluble
